Measured values as given in US20240390459A1, “ANTI-DEPRESSION AND ANTI-ANXIETY APPLICATION OF POLYPEPTIDE AND COMPLEX” (SHENZHEN CHENYANG BIOLOGICAL TECHNOLOGY CO., LTD, priority 2021, published 2024).
Ends that are not written are not given here.

B1: Dopamine D2 receptor (D2R), endogenous, from mouse hippocampus tissue (receptor, UniProt P61168 1-444, looked up)
chain: MDPLNLSWYDDDLERQNWSRPFNGSEGKPDRPHYNYYAMLLTLLIFIIVFGNVLVCMAVSREKALQTTTNYLIVSLAVADLLVATLVMPWVVYLEVVGEWKFSRIHCDIFVTLDVMMCTASILNLCAISIDRYTAVAMPMLYNTRYSSKRRVTVMIAIVWVLSFTISCPLLFGLNNTDQNECIIANPAFVVYSSIVSFYVPFIVTLLVYIKIYIVLRKRRKRVNTKRSSRAFRANLKTPLKGNCTHPEDMKLCTVIMKSNGSFPVNRRRMDAARRAQELEMEMLSSTSPPERTRYSPIPPSHHQLTLPDPSHHGLHSNPDSPAKPEKNGHAKIVNPRIAKFFEIQTMPNGKTRTSLKTMSRRKLSQQKEKKATQMLAIVLGVFIICWLPFFITHILNIHCDCNIPPVLYSAFTWLGYVNSAVNPIIYTTFNIEFRKAFMKILHC
notes: Native protein in a tissue lysate, detected by Western blot with sc-5303
B2: TAT-5HT2AR-CT: CT region (K385-V471) of 5-HT2AR fused with TAT (peptide, UniProt P28223 385-471, looked up, fragment)
chain: KTYRSAFSRYIQCQYKENKKPLQLILVNTIPALAYKSSQLQMGQKKNSKQDAKTTDNDCSMVALGKQHSEEASKDNSDGVNEKVSCV
modifications: C-terminal region fused with TAT peptide
notes: CT region (K385-V471) of 5-HT2AR fused with TAT
B3: GST-5HT2AR-CT: GST fusion protein containing the CT region of 5-HT2AR (K385-V471) (protein)
chain: B2 chain
modifications: left off: a dimerising Fc or GST

What was measured:
[1] = target: T1, D1R from mouse hippocampus tissue (Mus musculus, UniProt Q61616); assay: GST pulldown analysis of mouse hippocampus tissue extract with Western blot; type: binding; conditions: 15 μg GST fusion protein, 500 μg mouse hippocampus tissue extract, overnight 4° C.
T1 construct: from tissue; host or cells: mouse hippocampus tissue extract
Excerpt: In order to confirm the interbinding site of the 5-HT2AR/D1R complex, the 5-HT2AR full-length cDNA clone (Genbank Accession No.: NM_001378924) was first amplified to obtain cDNA fragments of the CT region of 5-HT2AR (K385-V471) and the third intracellular loop (IL3) region of 5-HT2AR (F255-V324). These fragments were subcloned to the BamH1/EcoR1 or BamH1/Xho1 site of a pGEX-4T-3 plasmid (YouBio no: VT1255). The initial methionine residue and termination codon were incorporated as appropriate. All constructs were resequenced to confirm that splicing and fusion was achieved appropriately. The GST fusion protein containing the third intracellular loop (IL3) of 5-HT2AR (GST-5HT2AR-IL3) and the GST fusion protein containing the CT region of 5-HT2AR (GST-5HT2AR-CT) were expressed from E. coli BL21 viable cells (AlpalifeBio, no: KTSM104L) and purified from bacterial lysate solution.
500 μg of dissolved mouse hippocampus tissue extract was diluted with 1×PBS/1% Triton X-100 and then incubated overnight with 20 μl protein GST resin saturated GST protein or 15 μg GST fusion protein at 4° C. Beads were washed 1-8 times with 1×PBS/1% Triton X-100. Binding proteins were eluted with 2×loading buffer, separated by SDS-PAGE, and underwent Western blot with respective antibodies thereof.
According to the method in the present Example, a pulldown analysis was performed using a GST fusion protein containing a KV region of 5-HT2AR (GST-5HT2AR-KV), a GST fusion protein containing a NN region of 5-HT2AR (GST-5HT2AR-NN), and a GST fusion protein containing a DV region of 5-HT2AR (GST-5HT2AR-DV), and the results of Western blot were shown in FIG. 4 B.
According to the method in the present Example, a pulldown analysis was performed using a GST fusion protein containing a DA region of 5-HT2AR (GST-5HT2AR-DA), and a GST fusion protein containing a SV region of 5-HT2AR (GST-5HT2AR-SV), and the results of Western blot were shown in FIG. 4 C.

[2] = target: T2, 5-HT2AR/D1R complex (Mus musculus, UniProt Q61616); assay: Co-immunoprecipitation of hippocampus tissue from polypeptide-treated mice; type: in vivo; conditions: single intraperitoneal administration 3 nmol/g, 1 hour after treatment, control TAT only
T2 construct: Co-immunoprecipitation was performed using protein samples (100-500 μg protein) from mouse hippocampus tissue; from tissue; host or cells: hippocampus tissue of treated mice (naive, CRS, CMS, CSDS)
Description: (§1) Co-immunoprecipitation was performed using protein samples (100-500 μg protein) from mouse hippocampus tissue. Precipitation was performed using a mouse antibody against 5-HT2AR (SantaCruz Biotechnology, sc-166775) and 25 μl protein A/G plus agarose bead slurry (santaCruz Biotechnology, sc-2001).
(§2) Western blot analysis was carried out after precipitation: the denatured protein was separated on 8% SDS-PAGE gel, then transferred to cellulose nitrate membrane and blocked with TBST; then incubated with mouse antibodies against D1R (SantaCruz Biotechnology, sc-33660) and D2R (SantaCruz Biotechnology, sc-5303) overnight at 4° C.; finally, treated with HRP-coupled secondary antibody for 1 hour, SuperSignal ECL Chemiluminescence Kit was used to detect the signal, and Image Lab software was used to analyze the density of the bands.
Mice were treated with TAT-5HT2AR-SV, TAT-5HT2AR-DV and TAT-5HT2AR-CT, and mice treated with TAT only were used as control (all treated by single intraperitoneal administration, 3 nmol/g). 1 hour after the treatment, the mice used were analyzed according to the co-immunoprecipitation method in Example 1, and the results are shown in FIG. 5.

[3] = test system: 5-HT2AR and D1R; assay: Direct Western blot of hippocampus tissue from polypeptide-treated mice; type: in vivo; conditions: mouse hippocampus tissue, single intraperitoneal 3 nmol/g, vs TAT
Description: as §2
In addition, the hippocampus tissues of TAT-5HT2AR-SV and TAT-treated mice were directly analyzed by Western blot.

[4] = target: T2, 5-HT2AR/D1R complex; assay: Co-immunoprecipitation of hippocampus tissue from polypeptide-treated CRS, CMS and CSDS mice; type: in vivo; conditions: hippocampus tissue of stressed CRS, single intraperitoneal 3 nmol/g, vs TAT
Description: as §1
as §2, with “bands. […]” for “bands.”
The treated CRS, CMS and CSDS mice of Example 6 (TAT-5HT2AR-SV, TAT-5HT2AR-DV, TAT-5HT2AR-CT and TAT) were analyzed according to the co-immunoprecipitation method of Example 1, and the Western blot results were shown in FIG. 9, respectively.

[5] = test system: D1R and 5-HT2AR; assay: Direct Western blot of hippocampus tissue from treated stressed mice; type: in vivo, mouse; conditions: CRS, CMS and CSDS mice
Description: as §2
To further evaluate the ability of the polypeptide as an antidepressant, CRS, CMS and CSDS mouse models were constructed according to the method described in Example 2, respectively; 1 hour after construction, mouse models were treated with 10 μM TAT-5HT2AR-SV, TAT-5HT2AR-DV, TAT-5HT2AR-CT or TAT respectively (all treated by single intraperitoneal administration, 3 nmol/g); then FST and TST were performed on CRS, and FST, TST and sucrose preference test (SPT) were performed on CMS and CSDS mice respectively.
Further, the hippocampus tissue of treated CRS mice was directly analyzed by Western blot to investigate the expression levels of D1R and 5-HT2AR, and the results are shown in FIG. 10.
In addition, CRS, CMS and CSDS mice treated with TAT-5HT2AR-DV or TAT-5HT2AR-CT were tested respectively.

[6] = test system: mice; assay: OFT for residence time in central area; type: in vivo, mouse; conditions: single intraperitoneal 3 nmol/g, 1 hour after treatment, 5 min, vs TAT
Description: (§3) To evaluate the antianxiety-like effect of the polypeptide of the present invention, mice treated with TAT-5HT2AR-SV, TAT-5HT2AR-DV, TAT-5HT2AR-CT (all treated by single intraperitoneal administration, 3 nmol/g) were subjected to open field test (OFT) for measuring residence time in central area and elevated plus maze test (EPM) 1 hour after treatment, with TAT-treated mice as control. Methods for the tests are as follows:
OFT (for measuring the residence time in central area): open bottom surface was divided into 25 equal-area grids, with the middle 9 grids as the central area. 1 hour after treated with the polypeptide, mice were placed in the central area and recorded for 5 min, and the residence time of mice in the central area was recorded.

[7] = test system: mice; assay: Elevated plus maze test (EPM); type: in vivo, mouse; conditions: single intraperitoneal 3 nmol/g, 1 hour after treatment, 5 min, vs TAT
Description: as §3
EPM: consists of two open arms (25 cm×8 cm) and two closed arms (25 cm×8 cm), with the intersection as the central area (8 cm×8 cm), which is 40 cm high from the ground. 1 hour after treated with the polypeptide, mice were placed in the central area facing the open arm, and were recorded for their free activities for 5 min. After each animal was tested, the device was wiped with 70% alcohol. The residence time at the open arm, the residence time at the closed arm, and the total movement distance of mice were recorded.

[8] = target: T3, 5-HT2A receptor (5-HT2AR), endogenous, from mouse hippocampus tissue (mouse, UniProt P35363 1-471); assay: co-immunoprecipitation from mouse hippocampus tissue with anti-5-HT2AR antibody, Western blot for D2R
T3 construct: Native protein in a tissue lysate, precipitated with a mouse anti-5-HT2AR antibody (sc-166775)
T3 sequence (P35363 whole entry): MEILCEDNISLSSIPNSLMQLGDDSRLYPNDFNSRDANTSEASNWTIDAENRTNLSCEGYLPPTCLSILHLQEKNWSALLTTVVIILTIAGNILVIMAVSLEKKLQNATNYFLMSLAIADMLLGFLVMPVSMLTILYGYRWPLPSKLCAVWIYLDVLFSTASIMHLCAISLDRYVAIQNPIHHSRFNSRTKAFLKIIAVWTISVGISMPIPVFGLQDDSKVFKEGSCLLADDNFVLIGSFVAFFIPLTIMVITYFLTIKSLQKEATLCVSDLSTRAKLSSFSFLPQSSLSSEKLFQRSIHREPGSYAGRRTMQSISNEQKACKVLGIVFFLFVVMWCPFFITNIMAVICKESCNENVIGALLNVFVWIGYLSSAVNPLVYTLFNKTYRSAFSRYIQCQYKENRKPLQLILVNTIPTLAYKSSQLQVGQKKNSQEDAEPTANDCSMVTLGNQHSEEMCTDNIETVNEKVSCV

T1 sequence (Q61616 whole entry, the tested form may be a part): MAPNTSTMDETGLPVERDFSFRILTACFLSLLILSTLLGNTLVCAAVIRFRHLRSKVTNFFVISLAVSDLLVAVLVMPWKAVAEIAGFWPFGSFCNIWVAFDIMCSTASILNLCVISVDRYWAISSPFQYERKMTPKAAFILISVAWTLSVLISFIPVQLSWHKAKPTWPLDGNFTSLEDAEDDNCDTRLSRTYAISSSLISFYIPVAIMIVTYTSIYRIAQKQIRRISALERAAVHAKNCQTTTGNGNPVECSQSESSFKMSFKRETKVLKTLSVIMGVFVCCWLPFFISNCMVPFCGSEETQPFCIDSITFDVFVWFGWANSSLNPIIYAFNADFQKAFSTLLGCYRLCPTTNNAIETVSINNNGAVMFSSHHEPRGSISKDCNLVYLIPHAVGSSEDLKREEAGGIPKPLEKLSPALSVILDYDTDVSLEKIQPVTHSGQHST
T2 sequence (Q61616 whole entry, one chain of several): as the sequence (Q61616 whole entry, the tested form may be a part) above

Row | Molecule | pulldown of / affinity to D1R [1] | interaction of 5-HT2AR/D1R (co-immunoprecipitation) [2] | expression of 5-HT2AR and D1R [3] | interaction between 5-HT2AR and D1R (co-immunoprecipitation) [4] | D1R and 5-HT2AR levels [5] | OFT residence time in the central region [6] | EPM residence time at the closed arm [7] | EPM residence time at the open arm [7] | other results
1 | GST-5HT2AR-DV: GST fusion protein containing a DV region of 5-HT2AR (D442-V471) (DCSMVALGKQHSEEASKDNSDGVNEKVSCV; not fully specified (N-terminus); cysteine pairing not given here; also: GST fusion protein) | can pulldown DIR | – | – | – | – | – | – | – | –
2 | GST-5HT2AR-SV: GST fusion protein containing a SV region of 5-HT2AR (S457-V471) (SKDNSDGVNEKVSCV; not fully specified (N-terminus); also: GST fusion protein) | has an affinity to D1R | – | – | – | – | – | – | – | –
3 | TAT-5HT2AR-DV: DV region (D442-V471) of 5-HT2AR fused with TAT (DCSMVALGKQHSEEASKDNSDGVNEKVSCV; cysteine pairing not given here; also: fused with TAT peptide at C-terminal region; UniProt P28223 442-471, looked up, fragment) | – | successfully destroyed the interaction of 5-HT2AR/D1R | did not cause a significant change | significantly reduced the interaction between 5-HT2AR and D1R | did not cause a significant change | significantly increased the residence time | decreased residence time at the closed arm | significantly increased residence time at the open arm | –
4 | B1 | – | – | – | – | – | – | – | – | binding result [8]: no binding
5 | B2 | – | successfully destroyed the interaction of 5-HT2AR/D1R | did not cause a significant change | significantly reduced the interaction between 5-HT2AR and D1R | did not cause a significant change | significantly increased the residence time | decreased residence time at the closed arm | significantly increased residence time at the open arm | –
6 | B3 | can pulldown DIR | – | – | – | – | – | – | – | –
